Laboratory results as given in the supplement of paper PMC9112550, “Optimization of the antimicrobial peptide Bac7 by deep mutational scanning” (BMC Biology, 2022).

Test system: Escherichia coli TOP10
Assay: shrunken log2 fold change of peptide-encoding DNA abundance (4.5 h post-induction vs induction); higher = less antimicrobial activity (less host growth inhibition)
Details: time post-induction: 4.5 h; library: site-saturation at positions 5, 18, 19, 20
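Further: peptides expressed intracellularly from a pBAD plasmid library in pooled LB shake-flask culture, induced with 0.3% L-arabinose, DNA abundance read by NGS, three biological replicates, DESeq2 with apeglm shrinkage.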

| Sequence | shrunken log2 fold change |
| --- | --- |
| RRIRQRPPRLPRPRPRPDEGPRP | -0.106 |
| RRIRMRPPRLPRPRPRPPVWPRP | 0.825 |
| RRIRGRPPRLPRPRPRPFMIPRP | -0.0383 |
| RRIRGRPPRLPRPRPRPWYFPRP | -0.417 |
| RRIRQRPPRLPRPRPRPWAIPRP | 0.0485 |
| RRIRWRPPRLPRPRPRPNLMPRP | -0.227 |
| RRIRDRPPRLPRPRPRPRWAPRP | 0.0236 |
| RRIRYRPPRLPRPRPRPEKPPRP | -0.00145 |
| RRIRGRPPRLPRPRPRPSWMPRP | -0.208 |
| RRIRPRPPRLPRPRPRPWGAPRP | 0.738 |
| RRIRRRPPRLPRPRPRPAFSPRP | -0.00711 |
| RRIRIRPPRLPRPRPRPDHDPRP | -0.0366 |
| RRIRYRPPRLPRPRPRPDTYPRP | -0.145 |
| RRIRLRPPRLPRPRPRPQKIPRP | 0.0459 |
| RRIRSRPPRLPRPRPRPECYPRP | 0.133 |
| RRIRWRPPRLPRPRPRPTRYPRP | -0.104 |
| RRIRTRPPRLPRPRPRPWIAPRP | -0.0119 |
| RRIRMRPPRLPRPRPRPKVIPRP | -0.259 |
| RRIRDRPPRLPRPRPRPFETPRP | -0.0134 |
| RRIRNRPPRLPRPRPRPVGCPRP | 0.618 |
| RRIRERPPRLPRPRPRPSSRPRP | -0.107 |
| RRIRSRPPRLPRPRPRPGMWPRP | 0.0949 |
| RRIRERPPRLPRPRPRPWRLPRP | -0.00145 |
| RRIRTRPPRLPRPRPRPESEPRP | -0.0433 |
| RRIRYRPPRLPRPRPRPLAYPRP | -0.15 |

| Sequence | shrunken log2 fold change |
| --- | --- |
| RRIRFRPPRLPRPRPRPPSYPRP | -0.0274 |
| RRIRLRPPRLPRPRPRPAFYPRP | 0.903 |
| RRIRVRPPRLPRPRPRPPNHPRP | -0.0404 |
| RRIRSRPPRLPRPRPRPGINPRP | 0.00688 |
| RRIRLRPPRLPRPRPRPHNEPRP | -0.497 |
| RRIRVRPPRLPRPRPRPMEHPRP | 0.0534 |
| RRIRHRPPRLPRPRPRPENFPRP | -0.0249 |
| RRIRWRPPRLPRPRPRPNFHPRP | -0.0344 |
| RRIRLRPPRLPRPRPRPWPMPRP | -0.0188 |
| RRIRLRPPRLPRPRPRPEQLPRP | 0.131 |
| RRIRRRPPRLPRPRPRPKWDPRP | 0.139 |
| RRIRSRPPRLPRPRPRPLIGPRP | -0.118 |
| RRIRNRPPRLPRPRPRPSKYPRP | -0.532 |
| RRIRSRPPRLPRPRPRPGIMPRP | -0.334 |
| RRIRMRPPRLPRPRPRPYFEPRP | -0.318 |
| RRIRRRPPRLPRPRPRPMNTPRP | -0.171 |
| RRIRYRPPRLPRPRPRPMRVPRP | 0.135 |
| RRIRWRPPRLPRPRPRPWLFPRP | 0.0264 |
| RRIRARPPRLPRPRPRPSGLPRP | 0.0354 |
| RRIRIRPPRLPRPRPRPHHGPRP | -0.0784 |
| RRIRVRPPRLPRPRPRPATYPRP | -0.0417 |
| RRIRCRPPRLPRPRPRPCECPRP | -0.0911 |
| RRIRGRPPRLPRPRPRPWPCPRP | 0.373 |
| RRIRDRPPRLPRPRPRPYHTPRP | -0.403 |
| RRIRNRPPRLPRPRPRPVAQPRP | 0.089 |
